Results on 79 sequences are retold here after the supplement of paper PMC10126150.

± gives the standard deviation of the averaged measurements.
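Also: ATP exposure 15 min at 22 °C before imaging.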

This data set has as its system ATP. The data set can be described thus: switch fluorescence ratio, 500 uM ATP over buffer (Cy3 cluster intensity, sum of 5 cycles each) (fold (ratio)); higher = stronger signal-on switching upon ATP binding; sequences stand for … in TCGTCGGCAGCGTCAGATGTGTATAAGAGACAGTTTTTTTTTTTTTTTTTTTTTTTTT…TC. The note with it: aptamer strand: ATP DNA aptamer (quencher-CACCTGGGGGAGTATTGCGGAGGAAGG + anchor), 100 nM annealed; ATP concentration: 500 uM. An outline of the steps:
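The fluorescence ratio divides summed target-cycle Cy3 intensity by summed buffer-cycle Cy3 intensity for each cluster and is averaged per switch-domain sequence. Cy3-labelled switching-strand clusters on a modified Illumina MiSeq flow-cell were annealed to 100 nM quencher-labelled ATP aptamer, then imaged in selection buffer and again after 15 min with 500 uM ATP at 22 °C. Five such cycles were run, with NaOH stripping and re-annealing between them, and clusters outside 100-1000 RFU were excluded.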
For CAATATTACA, the switch fluorescence ratio came to 1.05 ± 0.016. With GTTTTGTTGA, the switch fluorescence ratio stood at 1.02 ± 0.021. For TTTAAAAAGT the value was 1 ± 0.023. Take CTAGTGGGTT: the switch fluorescence ratio is 0.973 ± 0.02.

Regarding TAATTAGAGG, the switch fluorescence ratio is 1.01 ± 0.027. The result for TGAGAATTTT reads 0.996 ± 0.032. Consider CGTCGAATAT, for which the switch fluorescence ratio amounted to 1.016 ± 0.0016. Turning to CTGTTTTGTG, the switch fluorescence ratio was determined as 1.01 ± 0.049. Regarding GGGCCTGGTG, the switch fluorescence ratio amounted to 1.42 ± 0.013. For GGGGGGAGTG the value was 0.975 ± 0.029. For AGAGCATGAT the value was 1.03 ± 0.024; for CGGGGGGCCC, 0.97 ± 0.024.

With TAAAATCAGT, the switch fluorescence ratio was determined as 0.992 ± 0.046. Regarding AGAGGTATCT, the switch fluorescence ratio was found to be 0.9872 ± 0.0046. As for CGGACACGTT, the switch fluorescence ratio was determined as 0.983 ± 0.052.

GCGAAGACAA: the switch fluorescence ratio was determined as 1.04 ± 0.048.

Take GATGTGGTGT: the switch fluorescence ratio amounted to 0.984 ± 0.081. In the case of AAGTCAAAGT, the switch fluorescence ratio was determined as 1.03 ± 0.051.

As to TCGATGGGTG, the switch fluorescence ratio amounted to 1.01 ± 0.032. As to TTGACGAAAT, the switch fluorescence ratio was 1.41 ± 0.03. With TCTGAGTTTT, the switch fluorescence ratio stood at 1.05 ± 0.06. Turning to TTGTTGTTAC, the switch fluorescence ratio was found to be 0.9998 ± 0.0074. With GAGAATAATA, the switch fluorescence ratio is 0.988 ± 0.032. Consider ATGTGTTGCG, for which the switch fluorescence ratio was determined as 1 ± 0.045. Turning to AAATTGGGTG, the switch fluorescence ratio amounted to 1.02 ± 0.048.

As for GTTGTGATGT, the switch fluorescence ratio was 1 ± 0.013.

CGTTCGGGTT: the switch fluorescence ratio came out at 0.989 ± 0.044. In the case of TCCCTTTTGG, the switch fluorescence ratio was found to be 1.011 ± 0.0029. Regarding TTTATTCTTA, the switch fluorescence ratio stood at 0.9807 ± 0.0081. For ATCGATATAT the value was 0.991 ± 0.036; for TGAAGGGTAT, 1.02 ± 0.033. With GTAATGGCGG, the switch fluorescence ratio came to 1.013 ± 0.0019. In the case of CTCGCATGGT, the switch fluorescence ratio came out at 1.37 ± 0.024. Regarding TAAAATATTT, the switch fluorescence ratio was 1.05 ± 0.069. For the sequence CTGTTTTTGA, the switch fluorescence ratio was found to be 0.96 ± 0.061.

TTTTAGGGGA: the switch fluorescence ratio worked out at 1.01 ± 0.025. Consider TGAAGGGGAC, for which the switch fluorescence ratio worked out at 0.998 ± 0.015. On to TTTTTGCGGT, for which the switch fluorescence ratio amounted to 0.978 ± 0.025.

On to TCATACCGTA, for which the switch fluorescence ratio was determined as 1.09 ± 0.022. As to TATTTGATGT, the switch fluorescence ratio came to 0.991 ± 0.029. Turning to ACGGAGACGG, the switch fluorescence ratio is 0.979 ± 0.067. For TAGGAGATGA, the switch fluorescence ratio was 1 ± 0.042. For the sequence GGGTTCTGTA, the switch fluorescence ratio amounted to 0.985 ± 0.03.

For the sequence TCTCTAAAGA, the switch fluorescence ratio worked out at 1.04 ± 0.016.

Take TTGTCCTGCG: the switch fluorescence ratio came to 0.965 ± 0.019. Regarding TATAGTGGTC, the switch fluorescence ratio is 0.971 ± 0.035. For CGGTTGTTGT the value was 1.01 ± 0.021. For the sequence GGGAGAATTG, the switch fluorescence ratio was found to be 1.01 ± 0.037. The result for TCGCAGGGTG reads 1.43 ± 0.47. For GAAGGGCTAG, the switch fluorescence ratio stood at 0.9985 ± 0.0061. For GCATAAGGGT the value was 1.01 ± 0.038; for GGTGCCGGGG, 1.02 ± 0.042. AAAGCTGGGA: the switch fluorescence ratio stood at 1.01 ± 0.019.

For the sequence GGAGGGTTGT, the switch fluorescence ratio amounted to 0.979 ± 0.04. The result for GGGCATTTTG reads 0.998 ± 0.015; that for AAATCGTCGG, 0.991 ± 0.024; that for AAGCCGATCT, 0.974 ± 0.046. For AGAAGCGTGG, the switch fluorescence ratio turned out to be 1.01 ± 0.025. With TCTTCCGGTT, the switch fluorescence ratio came to 1.233 ± 0.0018. Consider CAGTTGATGC, for which the switch fluorescence ratio is 1.01 ± 0.096. Regarding CATCGGAGGG, the switch fluorescence ratio is 1.02 ± 0.029.

With CGATGCAGTT, the switch fluorescence ratio was found to be 1.05 ± 0.041. As to ACGTGTACGG, the switch fluorescence ratio was 1.03 ± 0.022.

Turning to ATAATTTATT, the switch fluorescence ratio was determined as 0.996 ± 0.012. In the case of CCTGTAAGCT, the switch fluorescence ratio is 1.3 ± 0.077.

As to GTTGATAAGA, the switch fluorescence ratio was found to be 0.982 ± 0.035. The result for ACATGTCTGA reads 0.9991 ± 0.0024. Regarding AACGGGGGGG, the switch fluorescence ratio was 1.05 ± 0.037.

Take TCGACGTTGT: the switch fluorescence ratio is 1.1 ± 0.036.

TCTTAGTGGG: the switch fluorescence ratio came to 1.01 ± 0.017. On to TTGGGATAAC, for which the switch fluorescence ratio was determined as 1.04 ± 0.058. TGCTACGGCG: the switch fluorescence ratio came to 1.02 ± 0.019. Regarding TTGAGATCGG, the switch fluorescence ratio was 1.01 ± 0.05. As to ATTGTGCGGC, the switch fluorescence ratio stood at 1.01 ± 0.027. Regarding GTTTTTTGTA, the switch fluorescence ratio was 0.994 ± 0.022.

Consider TTACAGGCCT, for which the switch fluorescence ratio was found to be 1.05 ± 0.056. Take ATATCATCGG: the switch fluorescence ratio was determined as 0.964 ± 0.025. As for AAGGGCCCAA, the switch fluorescence ratio was determined as 1.004 ± 0.0074. Consider AGTTAGATCT, for which the switch fluorescence ratio was 1.005 ± 0.009.
